Data: patent publication US20240279318A1 (NANJING LEGEND BIOTECH, published 2024)
Like-named read-outs stand apart in the source and are kept apart here.

Experiments:
[1] = target: ATG9A peptide/HLA-A*02:01 complex (recombinant) (human); test: SPR
[2] = target: BRCA2 peptide/HLA-A*02:01 complex (recombinant) (human); test: SPR
[3] = target: CDC14A peptide/HLA-A*02:01 complex (recombinant) (human); test: SPR
[4] = target: NR2E1 peptide/HLA-A*02:01 complex (recombinant) (human); test: SPR
[5] = target: OR1I1 peptide/HLA-A*02:01 complex (recombinant) (human); test: SPR
[6] = target: OR51B6 peptide/HLA-A*02:01 complex (recombinant) (human); test: SPR
[7] = target: PTP4A1 peptide/HLA-A*02:01 complex (recombinant) (human); test: SPR
[8] = target: RP1 peptide/HLA-A*02:01 complex (recombinant) (human, UniProt P16213 21-119 (Pongo pygmaeus entry)); test: SPR
[9] = target: RCL1 peptide/HLA-A*02:01 complex (recombinant) (human, UniProt P16213 21-119 (Pongo pygmaeus entry)); test: SPR
[10] = target: ZNF566 peptide/HLA-A*02:01 complex (recombinant) (human); test: SPR
[11] = target: T1, AFP158/HLA-A*02:01 complex (human); test: SPR; vs AS170036 VL1VH1
T1 construct: biotinylated on the BSP by BirA for ELISA and panning; also called biotinylated AFP158/HLA-A*02:01 complex; Bio-AFP158

[12] = target: T1, AFP158/HLA-A*02:01 complex; test: SPR; vs AS170036 VL1VH1; remark: listed apart in the source
Experimental: (§1) The experiment was carried out as follows. The crude scFv protein were captured onto the sensorchip. Different concentrations (320, 160, 40 nM) of AFP158/HLA-A*02:01 complex flowed over the sensorchip surface, and were allowed to bind the antibody fragment for 100 s followed by injection of the running buffer to allow dissociation of the complex. On-rate (kd) and off-rate (kd) were calculated based on association and dissociation curve, and were used to estimate the equilibrium dissociation constant (KD).

[13] = target: T1, AFP158/HLA-A*02:01 complex; test: SPR, crude scFv captured;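 further: Peptide–MHC complex flowed at several concentrations over sensorchip-captured scFv, Kd derived from on- and off-rates obtained from the association and dissociation curves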
Experimental: as §1

Binder	binding result [1]	binding result [2]	binding result [3]	binding result [4]	binding result [5]	binding result [6]	binding result [7]	binding result [8]	binding result [9]	binding result [10]	Affinity increase [11] [fold]	Affinity increase [12] [fold]	Kd [13] [nM]
AS170036 VL1VH1-VHG56N (scFv) scFv: QSALTQPRSVSGSPGQSVTISCAGTSSDVGSENYVSWYQQHPGKAPKLMIYQVNKRASGVPDRFSGSKSGNTASLTISGLQAEDEADYYCASYRSSDHNIVFGGGTKLTVLGGGGSGGGGSGGGGSEVQLVESGGGLVQPGGSLRLSCAASGFTFSSYAMSWVRQAPGKGLEWVSTINSGTNSPYYADSVKGRFTISRDNSKNTLYLQMNSLRAEDTAVYYCAKNFFDGSWFLGPPAMDYWGQGTLVTVSSHHHHHH	no binding (tested: all below 3.5 RU)	no binding (tested: all below 3.5 RU)	no binding (tested: all below 3.5 RU)	no binding (tested: all below 3.5 RU)	no binding (tested: all below 3.5 RU)	no binding (tested: all below 3.5 RU)	no binding (tested: all below 3.5 RU)	no binding (tested: all below 3.5 RU)	no binding (tested: all below 3.5 RU)	no binding (tested: all below 3.5 RU)	> 2	2.5	92
AS170036 VL1VH1-VHS57H (scFv) scFv: QSALTQPRSVSGSPGQSVTISCAGTSSDVGSENYVSWYQQHPGKAPKLMIYQVNKRASGVPDRFSGSKSGNTASLTISGLQAEDEADYYCASYRSSDHNIVFGGGTKLTVLGGGGSGGGGSGGGGSEVQLVESGGGLVQPGGSLRLSCAASGFTFSSYAMSWVRQAPGKGLEWVSTINSGTGHPYYADSVKGRFTISRDNSKNTLYLQMNSLRAEDTAVYYCAKNFFDGSWFLGPPAMDYWGQGTLVTVSSHHHHHH	no binding (tested: all below 3.5 RU)	no binding (tested: all below 3.5 RU)	no binding (tested: all below 3.5 RU)	no binding (tested: all below 3.5 RU)	no binding (tested: all below 3.5 RU)	no binding (tested: all below 3.5 RU)	no binding (tested: all below 3.5 RU)	no binding (tested: all below 3.5 RU)	no binding (tested: all below 3.5 RU)	no binding (tested: all below 3.5 RU)	> 2	6.9	35
AS170036 VL1VH1-VHG56Y (scFv) scFv: QSALTQPRSVSGSPGQSVTISCAGTSSDVGSENYVSWYQQHPGKAPKLMIYQVNKRASGVPDRFSGSKSGNTASLTISGLQAEDEADYYCASYRSSDHNIVFGGGTKLTVLGGGGSGGGGSGGGGSEVQLVESGGGLVQPGGSLRLSCAASGFTFSSYAMSWVRQAPGKGLEWVSTINSGTYSPYYADSVKGRFTISRDNSKNTLYLQMNSLRAEDTAVYYCAKNFFDGSWFLGPPAMDYWGQGTLVTVSSHHHHHH	no binding (tested: all below 3.5 RU)	no binding (tested: all below 3.5 RU)	no binding (tested: all below 3.5 RU)	no binding (tested: all below 3.5 RU)	no binding (tested: all below 3.5 RU)	no binding (tested: all below 3.5 RU)	no binding (tested: all below 3.5 RU)	no binding (tested: all below 3.5 RU)	no binding (tested: all below 3.5 RU)	no binding (tested: all below 3.5 RU)	> 2	6.6	35
AS170036 VL1VH1-VHS57K (scFv) scFv: QSALTQPRSVSGSPGQSVTISCAGTSSDVGSENYVSWYQQHPGKAPKLMIYQVNKRASGVPDRFSGSKSGNTASLTISGLQAEDEADYYCASYRSSDHNIVFGGGTKLTVLGGGGSGGGGSGGGGSEVQLVESGGGLVQPGGSLRLSCAASGFTFSSYAMSWVRQAPGKGLEWVSTINSGTGKPYYADSVKGRFTISRDNSKNTLYLQMNSLRAEDTAVYYCAKNFFDGSWFLGPPAMDYWGQGTLVTVSSHHHHHH	no binding (tested: all below 3.5 RU)	no binding (tested: all below 3.5 RU)	no binding (tested: all below 3.5 RU)	no binding (tested: all below 3.5 RU)	no binding (tested: all below 3.5 RU)	no binding (tested: all below 3.5 RU)	no binding (tested: all below 3.5 RU)	no binding (tested: all below 3.5 RU)	no binding (tested: all below 3.5 RU)	no binding (tested: all below 3.5 RU)	> 2	4.4	56

The remaining lines, values ahead:

binding result [1]	binding result [2]	binding result [3]	binding result [4]	binding result [5]	binding result [6]	binding result [7]	binding result [8]	binding result [9]	binding result [10]	Affinity increase [11] [fold]	Affinity increase [12] [fold]	Kd [13] [nM]	Binder
no binding (tested: all below 3.5 RU)	no binding (tested: all below 3.5 RU)	no binding (tested: all below 3.5 RU)	no binding (tested: all below 3.5 RU)	no binding (tested: all below 3.5 RU)		no binding (tested: all below 3.5 RU)	no binding (tested: all below 3.5 RU)	no binding (tested: all below 3.5 RU)	no binding (tested: all below 3.5 RU)	> 2	5.5	42	AS170036 VL1VH1-VHG108D (scFv) scFv: QSALTQPRSVSGSPGQSVTISCAGTSSDVGSENYVSWYQQHPGKAPKLMIYQVNKRASGVPDRFSGSKSGNTASLTISGLQAEDEADYYCASYRSSDHNIVFGGGTKLTVLGGGGSGGGGSGGGGSEVQLVESGGGLVQPGGSLRLSCAASGFTFSSYAMSWVRQAPGKGLEWVSTINSGTGSPYYADSVKGRFTISRDNSKNTLYLQMNSLRAEDTAVYYCAKNFFDGSWFLDPPAMDYWGQGTLVTVSSHHHHHH
no binding (tested: all below 3.5 RU)	no binding (tested: all below 3.5 RU)	no binding (tested: all below 3.5 RU)	no binding (tested: all below 3.5 RU)	no binding (tested: all below 3.5 RU)	no binding (tested: all below 3.5 RU)	no binding (tested: all below 3.5 RU)	no binding (tested: all below 3.5 RU)	no binding (tested: all below 3.5 RU)	no binding (tested: all below 3.5 RU)	> 2	2.8	96	AS170036 VL1VH1-VHG108S (scFv) scFv: QSALTQPRSVSGSPGQSVTISCAGTSSDVGSENYVSWYQQHPGKAPKLMIYQVNKRASGVPDRFSGSKSGNTASLTISGLQAEDEADYYCASYRSSDHNIVFGGGTKLTVLGGGGSGGGGSGGGGSEVQLVESGGGLVQPGGSLRLSCAASGFTFSSYAMSWVRQAPGKGLEWVSTINSGTGSPYYADSVKGRFTISRDNSKNTLYLQMNSLRAEDTAVYYCAKNFFDGSWFLSPPAMDYWGQGTLVTVSSHHHHHH
